The source of these data is patent US20260374864 (published 2026).

Sequences and labels used below:
B1: CD22-mAb-1 (antibody, V domains shown)
VH: QVQLVQSGAEVKKPGASVKVSCKASGYTFTGYYIHWVRQAPGQGLEWMGWINPNSGGTNYAQKFQGRVTMTRDTSIGTAYMELSRLRSDDTAIYYCTREDTWNYIDYWGQGTLVTVSS
VL: DIQMTQSPSSLSASVGDRVTITCRASQSISSHLNWYQQKPGKAPKLLIYAASSLHSGVPSRFSGSGSGTDFTLTISSLQPEDFATYCCQQSYSTPRTFGQGTKVEIK
B2: CD22-mAb-3 (antibody, V domains shown)
VH: QVTLRESGPALVKTTQTLTLTCTFSGFSLSTSGMCVSWIRQPPGKALEWLALIDWDDDKYYSTSLKTRLTISKDTSKSQVVLTMTSMDPVDTATYYCARIRYIYGYDYFDYWGQGTLVTVSS
VL: DIQMTQSPSSLSASVGDRVTITCRASQRISSQLNWYQQKPGKAPKLLIYAASSLQSGVPSRFSGSGSGTEFTLTISSLQPEDIATYCCQQTYSKPITFGQGTRLEIK
B3: CD22-mAb-4 (antibody, V domains shown)
VH: QVQLVESGGGVVQPGRSLRLSCAASGFTFSSYGMHWVRQAPGKGLEWVAIIYYDGSKKYYADSVKGRFTISRDNSKNTLYLQMNSLRAEDTAVYYCARELTGDAFDIWGQGTKVTVSS
VL: EIVLTQSPDFQSVTPKEKVTITCRASQSIGSSLHWYQQKPDQSPKLLIKYASQSFSGVPSKFIGSGSGTDFTLTINSLEAEDAATFYCHQSSTLPYTFGQGTKLEIK
B4: CD22-mAb-2 (antibody, V domains shown)
VH: QVTLRESGPALVKPTQTLTLTCTFSGISLTTSGMCVSWIRQPPGKALEWLALIDWDGDNYYSTSLKTRLTISKDTSKNQVVLTMASMDPVDTATYYCARMGYTYGYDAFDIWGQGTMVTVSS
VL: EIVLTQSPEFQSVTPTEKVTITCRASQSIGSLLHWYQQKPDQSPKLLIKFASQSLSGVPSRFSGSGSGTDFTLTINSLEAEDAATYYCHQSRSLPFTFGPGTKVDIN

Broadly, the Kd is a measure of binding affinity in units of concentration.

human CD22, His-tagged recombinant, sequence (P20273 20-687): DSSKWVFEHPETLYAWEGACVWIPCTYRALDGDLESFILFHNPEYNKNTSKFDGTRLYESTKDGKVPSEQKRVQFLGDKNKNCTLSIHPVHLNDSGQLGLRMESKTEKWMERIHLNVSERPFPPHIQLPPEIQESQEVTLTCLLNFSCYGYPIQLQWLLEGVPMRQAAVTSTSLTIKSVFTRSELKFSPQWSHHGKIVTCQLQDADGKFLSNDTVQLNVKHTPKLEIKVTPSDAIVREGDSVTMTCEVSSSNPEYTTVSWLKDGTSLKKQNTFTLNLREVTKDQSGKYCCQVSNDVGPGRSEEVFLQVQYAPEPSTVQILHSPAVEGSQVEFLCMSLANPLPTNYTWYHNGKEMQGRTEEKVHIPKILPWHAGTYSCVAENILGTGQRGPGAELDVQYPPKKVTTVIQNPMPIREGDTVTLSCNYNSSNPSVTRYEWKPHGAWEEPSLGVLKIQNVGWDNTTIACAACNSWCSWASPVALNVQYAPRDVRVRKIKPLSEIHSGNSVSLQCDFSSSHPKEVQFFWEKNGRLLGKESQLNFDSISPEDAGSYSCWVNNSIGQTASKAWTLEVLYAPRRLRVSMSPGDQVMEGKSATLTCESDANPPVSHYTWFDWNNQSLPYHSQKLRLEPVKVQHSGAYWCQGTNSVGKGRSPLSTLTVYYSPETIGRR

The experiment concerns the target human CD22, His-tagged recombinant (human, UniProt P20273). Briefly: SPR.
As for B1, the equilibrium dissociation constant (Kd) is 0.0377 nM.
Next, B2: 1.7 nM; B3: 2.59 nM.
For B4 the value was 0.358 nM.
